Earlier results on 1 substance are cited in publication PMC12818570.

The target of the data set is His57 (UniProt position 57, ILPVTHTEISP). The data set can be described thus: electrophysiology (solid-supported membrane electrophysiology, SSME, on isolated lysosomes). The settings on record: 90 mM NaCl + 50 mM NaCl or KCl, 5 mM MgCl2; 30 mM HEPES, 30 mM MES, titrated with HCl or NaOH; channel in lysosomal membrane, pH equilibrated symmetrically on both sides, no applied voltage.

What is called pKa is the negative logarithm of the acid dissociation constant. On to “Transmembrane protein 175 (TMEM175), endosomal/lysosomal cation channel (Homo sapiens)”, for which the pKa is 7.0 ± 0.1.
